Source: patent publication US20040091578A1 (priority 2001, published 2004)

Legend:
castor seed 2S protein = castor seed 2S protein (Ricinus communis, UniProt P01089); format: biochemical; settings: 20 min at 25° C.
trypsin [1] = experiment: Trypsin proteolysis of purified milk allergens; format: biochemical; settings: 10 μg NTS reduced protein, 2 μg trypsin
Protocol: The analysis of the reduction was done using the mBBr/SDS-PAGE techniques. Further in this study, when 10 μg of an NTS reduced purified milk allergen protein, β-lactoglobulin (Sigma Chemical Co.), was treated with 2 μg of trypsin, proteolysis was 100% as compared with only 50% for the identically trypsin treated oxidized β-lactoglobulin. […] However, 10 μg of purified α-lactalbumin reduced by the NTS was proteolyzed 80% by trypsin. Also 10 μg of α-lactalbumin reduced by 0.8 μg of thioredoxin and 0.5 mM DTT was 100% proteolyzed by 2 μg of trypsin.

pepsin [2] = target: T1, pepsin (Sus scrofa, UniProt P00791); experiment: Stability to pepsin in simulated gastric fluid (Example 44); format: in vitro ADME, porcine; settings: 37° C., 0.32% pepsin
T1 construct: purchased Sigma
T1 sequence (P00791 60-385): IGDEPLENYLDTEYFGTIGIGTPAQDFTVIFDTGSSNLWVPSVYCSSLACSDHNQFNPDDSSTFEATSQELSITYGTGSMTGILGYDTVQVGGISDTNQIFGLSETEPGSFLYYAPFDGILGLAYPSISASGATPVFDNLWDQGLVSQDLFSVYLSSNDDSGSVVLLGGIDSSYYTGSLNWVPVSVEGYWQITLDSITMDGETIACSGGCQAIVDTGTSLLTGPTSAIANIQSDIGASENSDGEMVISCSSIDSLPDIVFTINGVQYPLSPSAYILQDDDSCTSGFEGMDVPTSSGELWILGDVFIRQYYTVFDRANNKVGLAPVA
Protocol: Assay for Stability to Pepsin. BLG (1 mg/ml) or milk (15 mg/ml) were mixed with simulated gastric fluid (SGF) to give 0.32% pepsin and incubated for the indicated times at 37° C. as described in Example 39 and Astwood et al., 1996, herein incorporated by reference. The digested proteins were analyzed by reducing SDS-PACE (10 to 20% gradient gel) also as described in Laemmli, 1970, herein incorporated by reference.

pepsin [3] = target: T1, pepsin; experiment: Pepsin assay in simulated gastric fluid (Example 39); format: in vitro ADME, porcine
Protocol: BLG, 640 μg, or milk, 1 mg protein (i.e., about 30 μl), was incubated with or without the thioredoxin system (NTS) at either 4° C. […] The BLG, 320 μg, or milk, 500 μg protein, was then treated in 200 μl of simulated gastric fluid (SGF) as described by Astwood, J. D. et al. (1996), “Stability of food allergens to digestion in vitro”, Nature Biotechnol. 14:1269-1273. SGF consists of 0.32% pepsin (w/v) and 30 mM NaCl adjusted at pH 1.2 with HCl (Board of Trustees (ed.) 1995, Simulated Gastric Fluid, TS., pp. 2053 in the United States Pharmacopeia 23, The National Formulary 18. United States Pharmacopeial Convention, Inc. Rockville, Md.). The reaction mixture was incubated at 37° C. and stopped by adding 0.375-fold volume of 160 mM Na2CO3 (ca. pH 7) after 0, 0.25, 1, 2, 4, 8, 15, 30 and 60 min incubation. The protein mixture was then subjected to SDS-PAGE (15% gels) and stained for protein with Coomassie blue as described below. As indicated, the allergenicity of the digested samples was determined by skin test analysis.

[4] = Redox stability of reduced BLG in air; format: physicochemical; settings: NTS-treated raw milk without buffer, stored at 4° C. in air
Protocol: BLG is known to contain two disulfides, both intramolecular (See, FIG. 8): one clearly accessible on the surface and located close to the C-terminus (Cys 66-Cys 160) and the other, close to the core, located between two β-sheets (Cys 106-Cys 119 or possibly Cys 106-Cys 121). Sequence analysis confirmed that the exposed disulfide (Cys 66-Cys 160) was reduced at 55° C. […] Differential reduction of BLG could also be achieved by altering pH. […] Furthermore, the BLG in this treated milk without buffer remained reduced for 2 days when stored at 4° C. in air (data not shown).
Two sulfhydryl (SH) groups can often spontaneously react to form an S—S bond in the presence of oxygen. […] For example, the reduced form of β-lactoglobulin (BLG), a major allergen of cow's milk, is fully reoxidized after 3 days in air whether reduced by either NTS or DTT. This invention provides for the stabilization of proteins, including allergenic proteins reduced by the NTS at 4° C. and by DTT at 55° C. Other physiological reductants such as lipoic acid may also be used to initially reduce the proteins. In general, the reduction reactions were conducted as described in previous examples. The proteins are stabilized in that the SH groups of these proteins and allergens are blocked and prevented from reoxidizing to form S—S bonds. […]

atopic dogs = experiment: Skin tests with milk and BLG in atopic dogs (Example 39); format: in vivo; settings: dog model skin tests
Protocol: Newborn pups from two litters of the atopic dog colony, designated CGB and GCB, were injected subcutaneously at day 1 with 1 μg each of wheat, cows milk and beef extract (Miles, Inc., Elkhart, Ind., described in Example 33) in 0.2 ml of alum. A third litter, designated CBB, was injected with a soy extract (Miles, Inc. described in Example 33) in addition to these same allergens. Procedures for the sensitization, testing and maintenance of the pups were substantially the same as those described in Example 36.
About 3 min prior to skin testing, each dog received 4-5 ml of filtered 0.5% Evans blue dye solution (equivalent to 0.2 ml of 0.5% Evans blue dye per kg of weight) through a cephalic vein to enhance assessment of the cutaneous IgE antibodies. Serial dilutions of 100 μl of each sample were injected intradermally on the abdominal skin to establish the titer. After 15-20 min, the allergic response was determined by measuring the size of the blue wheal reaction (maximum length and width). An appropriate negative control (buffer diluted in physiological saline) was included for each animal tested. Repeated tests with thioredoxin, NTR, NADPH and pepsin alone were consistently negative.

trypsin [5] = settings: soy flour, 30 min at 120° C. (Friedman et al., 1991); cited from earlier work
glutaredoxin = target: T2, glutaredoxin (Escherichia coli, UniProt P68688); experiment: Reduction by glutaredoxin, mBBr/SDS-PAGE with densitometric scanning; format: biochemical; settings: E. coli glutaredoxin, glutathione reductase, NADPH
T2 sequence (P68688 1-85): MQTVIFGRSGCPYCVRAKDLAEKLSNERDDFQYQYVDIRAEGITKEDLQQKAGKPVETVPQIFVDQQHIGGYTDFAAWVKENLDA
Protocol: Direct reduction of the proteins under study was determined by a modification of the method of Crawford et al. (Crawford, N. A. et al. (1989), Arch. Biochem. Biophys. 271:223-239). The reaction was carried out in 100 mM potassium phosphate buffer, pH 7.1, containing 10 mM EDTA and 16% glycerol in a final volume of 0.1 ml. As indicated, 0.7 μg (0.1 μM) NTR and 1 μg (0.8 μM) thioredoxin (both routinely from E. coli were added to 70 μl of the buffer solution containing 1 mM NADPH and 10 μg (2 to 17 μM) of target protein. When thioredoxin was reduced by dithiothreitol (DTT, 0.5 mM), NADPH and NTR were omitted. Assays with reduced glutathione were performed similarly, but at a final concentration of 1 mM. After incubation for 20 min, 100 nmoles of mBBr were added and the reaction was continued for another 15 min. To stop the reaction and derivatize excess mBBr, 10 μl of 10% SDS and 10 μl of 100 mM β-mercaptoethanol were added and the samples were then applied to the gels. […]
This ability was tested, using glutaredoxin from E. coli and the seed proteins currently under study. Reduction activity was monitored by the mBBr/SDS polyacrylamide gel electrophoresis procedure coupled with densitometric scanning.

[6] = system: wheat protease preparation; experiment: Susceptibility to proteolysis by a plant protease preparation, SDS-PAGE densitometry; format: biochemical
Protocol: The endosperm (10-15 g fresh weight) isolated from 5-day germinated wheat seeds by excising the roots and shoots was extracted for 30 minutes at 4° C. with 5 volumes of 200 mM sodium acetate, pH 4.6, containing 10 mM β-mercaptoenthanol. The homogenate was centrifuged for 20 minutes at 48,000 g, 4° C. The pellet was discarded and the supernatant fluid was fractionated with 30-70% ammonium sulfate. This fraction, which represented the protease preparation, was resuspended in a minimum volume of 20 mM sodium acetate, pH 4.6, containing 10 mM β-mercaptoenthanol, and dialyzed against this buffer overnight at 4° C.
Unless indicated, the reduction of the trypsin inhibitors (0.4 mg/ml) was carried out in 0.1 ml of 20 mM sodium phosphate buffer, pH 7.9 containing 10 mM EDTA at 30° C. for 2 hours. The concentrations of thioredoxin, NTR, and NADPH were 0.024 mg/ml, 0.02 mg/ml, and 0.25 mM, respectively. […] Following reduction, aliquots of the inhibitor mixture were withdrawn either for determination of trypsin inhibitory activity or proteolytic susceptibility. In the subtilisin tests, the inhibitor mixture (50 μl) was directly mixed with subtilisin and incubated at room temperature for 1 hour. With the wheat protease preparation, the pH of the inhibitor mixture (50 μl) was first adjusted to 4.7 by mixing with 35 μl of 200 mM sodium acetate, pH 4.6; 10 μl of the wheat protease preparation was then added and incubation was continued for 2 hours at 37° C. To stop digestion with subtilisin, 2 μl of 100 mM phenylmethylsulfonyl fluoride (PMSF) and 10 μl of 10% SDS were added to the digestion mixture. With the plant protease preparation, digestion was stopped by adding an equal volume of SDS sample buffer [0.125 M Tris-HCl, pH 6.8, 4% (w/v) SDS, 20% (v/v) glycerol, 10% (v/v) β-mercaptoethanol, and 0.02% (w/v) bromophenol blue]. Proteolytic products were analyzed by electrophoresis with 12% or 16% SDS polyacrylamide slab gels (Laemmli, 1970). The dried slab gels were scanned with a laser densitometer (Pharmacia-LKB UltraScan XL) and the peak area of the KTI or BBTI protein band was obtained by integration with a Pharmacia GelScan XL software program.
To test whether the reduced forms of KTI and BBTI show decreased stability to proteases other than trypsin, both the reduced and oxidized forms of KTI and BBTI were incubated with a wheat protease preparation or with subtilisin and the proteolytic products were analyzed by SDS-PAGE. The extent of proteolysis was determined by measuring the abundance of intact protein on SDS gels by laser densitometer. When tested with a protease preparation from 5-day germinated wheat seeds, the oxidized form of the Kunitz inhibitor was almost completely resistant to digestion whereas the thioredoxin-reduced form was susceptible to protease. […] The nature of the proteolytic reaction was not investigated, but it is noted that peptide products were not detected on SDS gels.

trypsin [7] = experiment: Trypsin inhibition assay; format: biochemical
Protocol: Unless indicated, the reduction of the trypsin inhibitors (0.4 mg/ml) was carried out in 0.1 ml of 20 mM sodium phosphate buffer, pH 7.9 containing 10 mM EDTA at 30° C. for 2 hours. The concentrations of thioredoxin, NTR, and NADPH were 0.024 mg/ml, 0.02 mg/ml, and 0.25 mM, respectively. […] Following reduction, aliquots of the inhibitor mixture were withdrawn either for determination of trypsin inhibitory activity or proteolytic susceptibility. In the subtilisin tests, the inhibitor mixture (50 μl) was directly mixed with subtilisin and incubated at room temperature for 1 hour. […] Proteolytic products were analyzed by electrophoresis with 12% or 16% SDS polyacrylamide slab gels (Laemmli, 1970). […]
Thioredoxin and NTR were assayed as previously described by Florencio et al. (1988). Trypsin activity was measured in 50 mM Tris-HCl, pH 7.9, by following the increase in absorbance at 253 nm with N-benzoyl-L-arginine ethyl ester as substrate (Mundy et al., 1984) or by the release of azo dye into the trichloroacetic acid (TCA)-soluble fraction from azocasein substrate (see below). For trypsin inhibition assays, trypsin (5 to 10 μg) was preincubated with appropriate amounts of KTI or BBTI for 5 minutes at room temperature in 50 mM Tris-HCl, pH 7.9 and proteolytic activity was then determined. […]

Chain of castor seed 2S protein (P01089 194-258 limits assumed): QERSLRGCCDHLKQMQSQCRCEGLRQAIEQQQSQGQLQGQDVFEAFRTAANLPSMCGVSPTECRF
Chain of castor seed 2S protein (P01089 157-190 partner limits assumed): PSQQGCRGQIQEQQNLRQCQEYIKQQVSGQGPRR

Question: For O[C@H](CS)[C@H](O)CS (racemic) [DTT, dithiothreitol], which “Relative Reduction (%)” value (castor seed 2S protein) is on record?
Answer: The value was 67%.

Question: Which results are given for “β-lactoglobulin: bovine β-lactoglobulin, major milk allergen; untreated (oxidized) control in Tables XVIII, XXI-XXIV”?
Answer: proteolysis by trypsin (trypsin [1]): 100%; half-life in SGF (pepsin [2]): about 2 hours; time resisting digestion in SGF (pepsin [3]; oxidized BLG in milk): at least 60 min; time to digestion in SGF (pepsin [3]; thioredoxin-reduced BLG in milk): ≤ 60 s; time BLG remained reduced [4]: 2 days; share of the total wheal-inducing activity of milk (atopic dogs): 80%

B1: Soybean Kunitz: Kunitz soybean trypsin inhibitor (protein, UniProt P01070 25-205, looked up)
Trypsin inhibitor A: DFVLDNEGNPLENGGTYYILSDITAFGGIRAAPTGNERCPLTVVQSRNELDKGIGTIISSPYRIRFIAEGHPLSLKFDSFAVIMLCVGIPTEWSVVEDLPEGPAVKIGENKDAMDGWFRLERVSDDEFNNYKLVFCPQQAEDDKCGDIGISIDHDDGTRRLVVSKNKPLVVQFQKLDKESL
Question: What does the source list for B1?
Answer: original trypsin inhibitor activity remaining (trypsin [5]): about 20%; percentage reduction by glutaredoxin relative to E. coli thioredoxin (glutaredoxin): ineffective; Relative Abundance ([6]; Protease after E. coli NTS): 22.1; Relative Abundance ([6]; Protease after NTS minus NADPH): 97.7; Relative Abundance ([6]; Protease after NTS minus NTR): 97.9; Relative Abundance ([6]; Protease after NTS minus thioredoxin): 90.2; Relative Abundance ([6]; Protease, No reduction system, no protease = 100): 97.9; degraded ([6]; all components of NTS present): about 80%; increase in trypsin activity effected by the NADP/thioredoxin system (trypsin [7]): 3 fold
